Experimental data: the nanobody polyreactivity screen of Harvey et al. (2022)

Assay: yeast display, Sf9 membrane polyspecificity reagent, FACS + sequencing; frameworks hold sequencing errors
In short: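 Galactose induction of a Saccharomyces cerevisiae BJ5465 synthetic nanobody display library ran 36–48 hours. The cells were then stained for 1 hour at 4 °C with 10% biotinylated, detergent-solubilized Sf9 membrane reagent, pulled down on streptavidin microbeads and FACS-sorted into low and high (top ~1%) gates on expression and reagent-binding fluorescence. Labels for polyreactivity follow the gate of origin.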

Row | Sequence | polyreactivity (PSR sort gate)
1 | QVQLVESGGGLVQAGGSLRLSCAASGSIFYIYAMGWYRQAPGKERELVASITFSGDITYYADSVKGRFTISRDNAKNTVYLQMNSLKPEDTAVYYCAADYHEQSYAVTYDYWGQGTQVTVSS | low polyreactivity
2 | QVQLVESGGGLVQAGGSLRLSCAASGRTFNVYAMGWYRQAPGKERELVAVITNGGSTNYADSVKGRFTISRDNAKNTVYLQMNSLKPEDTAVYYCAASWGYGALTPDMGYWGQGTQVTVSS | low polyreactivity
3 | QVQLQESGGDLEQAGGSLRLSCTASGTNSDVRVMGWYRQAPGKERELVATISYVTITYYADSVKGRLTISRDSEKHRVSADDEPETGRYRGVLLRYYWGLGTQVTVSS | low polyreactivity
4 | QVQLVESGGGLVQAGGSLRLSCAASGSIFVRYAMGWYRQAPGKERELVAAISSGGRTYYADSVKGRFTISRDNAKNPVYLQMNSLKPEDTAVYYCNAVKRVPSLGPYDYWGQGTQVTVSS | high polyreactivity
5 | QGQLVESGGGLVQAGGSLRLSCAASGFTFARNVMGWSRQAPGTERELVAAITTSGGSTYYADSVKGRFTISRDNAKNTVYLQMNSLKPEDTAVYYCARRVYGYYIPYNYWGQGTQVTVSS | high polyreactivity
6 | QVQLQESGGGLEQAGGSLRLSCAASGYITDIGTMGWYRQAPGKEREFVATIVVGSTTNYADSVKGRFTISRDNAKNTVYLQPESGRYRGVLLRGWLLAVGNFTYWGQGTQETVSS | low polyreactivity
7 | QFHLVESGGGLVQAGGSLRLTCAASGRTFAYYAMGWYRQAPGKEREMVAGITRNGGSTYYADSVKGRFTISRDNAKNTVYLQMNSLKPEDTAVYYCAAGFTTRRGEYNYWGKGTQVTVSS | high polyreactivity
8 | QVQLVESGGGLVQAGGSLRLSSAASGSIFPRYVMGCYRQAPGKERELVPAISRGGSTNYADSVKGRFTISRDNAKNTVYLQMNSLKPEDTAVYYCDAVLYTRYNYWGQGTQVTVSS | high polyreactivity
9 | QVQLVESGGGLVQAGGSLRLSCAASGRTFWYYTMGWYRQAPGKERELVAAITSGGSTYYADSVKGRFTISRDNAKNTVYLQMNSLKPEDTAVYYCAAYLYWDFTYYYALVDYWGQGTQVTVSS | high polyreactivity
10 | QVKLVESGGGLVQAGGSLRLSCPASGSTFVLNAMGWYRQAPGKERELVAAITWSGASTYYADSVKGRFTISRDNAKNTVYLQMNSLKPEDTAVYYCANDIPTDYKDVNYWGQGTQVTVSS | low polyreactivity
11 | QVQLVESGGGLVQAGGSLRLSCAASGSIFGWYAMGWYRQAPGKERELVAAISSSDGSTYYADSVKGRFTISRDNAKNTVYLQMNSLKPEDTAVYYCATDSAFTYAQYDYWGQGTQVTVSS | low polyreactivity
12 | QVQLVESGGGLDQAGGSLRLSCAASGRIFTVYAMGGYRQAPGKERELVAAISGRGGRTYYADSVKGRFTISRDIAKNTVYLQMNSLKPEDTAVYYCNADTLTLTRPDGDIHTVWMDYWGQGTQVTVSS | low polyreactivity
13 | QVQLVESGGGLVHAGGSLRLSCAASGRIFQYYAMGWYRQAPGKERELVAAIDQSGDTTYYADSVKGRFTISRDNAKNTVYLQMNSLKPEDTAVFYCAAGYDWAYHWVPQWMYFWGQGTQVTVSS | low polyreactivity
14 | QVQLVESGGGLVQAGGSLRLSCAASGFTFNRYAMGWYRQAPGKERELVAAISWSGTSTYYADSVKGRFTISRDNAKNTVYLQMNSLKQEDTAVYYCAARVKGQWNTYDYWGQGTQVTVTS | high polyreactivity
15 | QVQLVESGGGLVQAGGSLRLSCAASGFTFQSYAMGWYRQAPGKERELVATIRTRGGSTSYADSVKGRFTISRDNAKNTVYLQMNSLKPEDTAVYYCNGRLSYRSAWYYGGDRYDYWGQGTQVTVSS | high polyreactivity
16 | QVQLVESGGGLVQAGGSLRLSCASSGSTLEVNAMGWYRQAPGKERELVAAITSGCSTNYADSVKGRFTISRDNAKNTVYLQMNSLKPEDTAVYYCNALAYYGMDYWGQGTQVTVSS | low polyreactivity
17 | QVQLVESGGGLVQAGGSLRLSCAASGSNFRSYAMGWYIQAPGKERELVAAITWGGNTYYADSVKGRFTISRDNAKNTVYLQMNSLKPEDTAVYYCAAKSYYTRRSKYDYWGQGTQVTVSS | high polyreactivity
18 | QVQLVESGGGLVQAGGSLRLSCAASGSTFRFYAMGWYRQAPGKERELVAAITRSGGGTTYYADSVKGRFTISRDNAKNTVYLQMNSLKPEDTAVYYCAAYLSSLGRKYYYWGQGTQVTVSS | high polyreactivity
19 | QVQLVESGGGLVQAGGSLRLSCAASGRTFGDKAMGWYRQAPGKERELVAAISWSGGRTYYADSVKGRFTISRDNAKNTVYLQMNSLKPEDTAVYYCAARNNRYPLYNYWGQGTQVTVSS | low polyreactivity
20 | QVQLVESGGGLVQAGGSLRLSCAASGLTFYSNSMGWYRPAPGKERELVAVISADGASTYYADSVKGRFTISRDNAKNTVYLQMNSLKPEDTAVYYCAARVSARGKGYYWGQGTQVTVSS | high polyreactivity
21 | QVQLVESGGGLVQAGGSLRLSCAASGSIFRTNAMGWYRQAPGKERELVAAISQRGGSTYYADSVKGRFTISRDNAKNTVYLQMNSLKPEDTAVYYCAAPYTQKRGYDYWGQGTLVTVSS | high polyreactivity
22 | QVQLVESGGGLVQAGGSLRLSCAASGLTLYRYVMGWYRQAPGKERELVADISGRGTSTYYADSVKGRFTISRDNAKNTVYLQMNRLKPAATAVYYCNAEYTKTGALVIPYTYYYAEDYWGQGTQVTVSS | low polyreactivity

Row | Sequence | polyreactivity (PSR sort gate)
23 | QVQLVESGGGLVHAGGSLRLSCAAYGFIFYDYVMGWYRQAPGKERELVAAITGSGGGTYYADSVKGRFTISRDNAKNTVYLQMNSLKPDATAVYYCAADFISVYGYEYYYWGQVTQVTVSS | high polyreactivity
24 | QVQLVESGGGLVHAGGSHRLSCAASGLIFRRNPMGWYRQAPGKERELVAAISRTGGSTYYADSVKGSFTISRDNAKNTFYLQMNSMKPEYTAVYYCASDNRDYDYTYEYWGQGTQVTVSS | low polyreactivity
25 | QVQLVESGGGLVQAGGSLRLSCAASGRIFSRYAMGWYLQAPGKERELVAAISWSGGSTYYADSVKGRFTISRDNAKNTVYLQMNSLKPEDTAVYYCAAKRQYTEYNYWGQGTQVTVSS | high polyreactivity
26 | QVQLVESGGGLVQAGGSLRLICAATGSTLVSNAMGWYRKDPGKERELVAAISTSGGSTYYADSVKGRFTISRDNAKNTVYLQMNSLKPEDTAVYYCAAPYAGWGDGGDYWGQGTQVTVSS | low polyreactivity
27 | QVQLVESGGGLVQAGGSLRLSLAASGRTFEYYAMGWYRQAPGKERELVAAITSGGITYYADSVKGRFTISRDNAKNTVYLQMNSLKPEDTAVYYCNDRHRYYRYGYWGQGSQVTVSS | high polyreactivity
28 | QVQLVESGGGLVQAGGSLRLSCAASGRTFLYYVMGWYRQAPGKERELVAAITNRGGSTYYADSVKGRFTISRDNAKNTVYLQLNSLKPEDTAVYYCNAPYGVYWSSTYYYWGQGTQVTVSS | high polyreactivity
29 | QVQLVESGGGLVQAGGSLRLSCAASGGTFAYKAMGWYRQAHGKERQLVAAITSSGGSTYYADSVKGRFTISRDNAKNTVYLQMNRLKPEDTAVYYCNRLRNRSLGGYYYWGQGTQVTVSS | high polyreactivity
30 | QVQLVESGGGLVQAGGSLRLSCAASGNTFYHYVMGWYRQAPGKESELVAAISRSGGSTYYADSVKGRFTISRDNAKNTVYLQMNSLKPEDTAVYYCAARTSIGLLYDYWGQGTQVTVSS | high polyreactivity
31 | QVQLVESGGGLVQAGGSLRLSCAASGSTFYRYAMGWYRQAPGKERELVAAISYRGGSTYYADSVKGRFTISRDNAKNTVYLQMNSLKPEDTAVYYCNKRSTRRYDYWGQGTQETVSS | high polyreactivity
32 | QVQLVESGGGLVQAGGSLRLSCAASGSTFPKYAMGWYRQAPGKERELVAAISWYGGRTYYADSVKGRFTISRDNAKHTVYLQMNSLKPEDTAVYYCAASIPGTRSDGYWGQGTQVTVSS | low polyreactivity
33 | QVQLVESGGGLVQAGGSLRLSCAASGSTIRYYVKGWYRQAPGKERELVAAISYNGGSTYYADSVKGRFTISRDTAKNTVYLHMNSVTPEDTAVYYCAADAPYRSSGKDYWGQGTQVTVSS | high polyreactivity
34 | QVQLVESVGGLVQAGGSLRLSCAASGITFYGYTMGWYIQAPGKERELVAAITSGGITYYADSVKGRFTISRDNAKNTVYLQMNSLKPEDTAVYYCAARRYCYTSITWYDYWGQGTQVTVSS | high polyreactivity
35 | QVQLVESGGGLVQAGGSLRLSCAASGFTFKYYDMGWYRQAPGKERELVAGITWDGGSTTYSDSVKGRFTISRDNAKNTVYLQMNSLKPEDTAVYYCAADVRYTSPFYYYLGAYYYWGQGTQVTVSS | low polyreactivity
36 | QVQLVESGGGLVQAGGSLRLSCAASGRIFVYNAMGWYLQAPGKERELVANIDYSGGSTYYADSVKGRFTISRDNAKNTVYLQMNSLKPEDTAVYYCAADGGSTAFDYWGHGTQVTVSS | low polyreactivity
37 | QVQLVDSGGGLVQAGGSLRLSCAASGSIILVNAMGWYRQAPGKEREFVAAISTSSGSTYYADSVKGRFTISRDNAKNTVYLQMNSLKPEDTAVYYCAADEVYSRGIWPVEDDYWGQGSQVTVSS | low polyreactivity
38 | QVQLVESGGGLVQAGGSLRLSCAASGGTFVYYAMGWYRQAPGKERELVAAISGSGGRTYYADSVKGRFTISRDNAKNTVYLQMNSLKPEDTAVYFCAAVHLNRYWGQGTQVTVSS | high polyreactivity
39 | QVQLVESGGGLVQAGGSLRLSCAASGITFRLYAMGWNRQAPGKERELVAAITGSGGRTYYADSVKGRFTISRDNAKNTVYLHMNSLKPEDTAVYYCAADWRHLRYRGGLKYDYWGQGTQVTFSS | high polyreactivity
40 | QVQLVESGGGLVQAGGSLRLSCAASGSIFYQNAMGWYRQAPGKERELVAAITSDGSTYYADSVKGRFTISRDNAKNTVYLQMNSLKPEDNAVYYCAAEYYVHRYDYWGQGTQVTVSS | low polyreactivity
41 | QVQLVESGGGLVQAGGSLRLSCAASGRIFGSNAMGWYRQAPAKERELVAAITFRTASTYYADSVKGRFTISRDNAKNTVYLQMNSLKPEDTSVYSCNADKFSAPPLYEYEYWGQGTQVTVSS | low polyreactivity
42 | QVQLVESGGGLVQAGGSLRLSCAASGIIFTSYAMGWYRQAPGKERELVAVITGTGGITYYADSVKGRFTISRDNAKNTVYLQMNSLKPEDTAVYYCAAELELREYDYWGQGTQVTVSS | high polyreactivity
43 | QVQLVESGGGLVQAGGSLRLSCAASGSIFYGFDMGWYRQAPGKERELVATISWSSGSSTYYADTVKGRFTISRDNAKNTVYLQMNSLKPEETAVYYCAVDFAIGYRYQGRVDYWGQGTQVTVSS | low polyreactivity
